Here are results for one protein from patent US20180045741.

This data set deals with unphosphorylated ubiquitin.

B1: PINK1-3x Flag isolated from CCCP-treated cells (protein)
chain: MAVRQALGRGLQLGRALLLRFTGKPGRAYGLGRPGPAAGCVRGERPGWAAGPGAEPRRVGLGLPNRLRFFRQSVAGLAARLQRQFVVRAWGCAGPCGRAVFLAFGLGLGLIEEKQAESRRAVSACQEIQAIFTQKSKPGPDPLDTRRLQGFRLEEYLIGQSIGKGCSAAVYEATMPTLPQNLEVTKSTGLLPGRGPGTSAPGEGQERAPGAPAFPLAIKMMWNISAGSSSEAILNTMSQELVPASRVALAGEYGAVTYRKSKRGPKQLAPHPNIIRVLRAFTSSVPLLPGALVDYPDVLPSRLHPEGLGHGRTLFLVMKNYPCTLRQYLCVNTPSPRLAAMMLLQLLEGVDHLVQQGIAHRDLKSDNILVELDPDGCPWLVIADFGCCLADESIGLQLPFSSWYVDRGGNGCLMAPEVSTARPGPRAVIDYSKADAWAVGAIAYEIFGLVNPFYGQGKAHLESRSYQEAQLPALPESVPPDVRQLVRALLQREASKRPSARVAANVLHLSLWGEHILALKNLKLDKMVGWLLQQSAATLLANRLTEKCCVETKMKMLFLANLECETLCQAALLLCSWRAAL
As to B1, the “phosphorylation of ubiquitin (Phos-tag assay)” value was “PINK1 isolated from CCCP-treated cells phosphorylates ubiquitin”.
